Experimental data from article PMC7952905.

Biological target: human ACE2 extracellular domain (19-615) (human) (UniProt Q9BYF1)
Test: SPR

With “RaTG13 RBD (333-526) (from UniProt A0ABF7PLN6 333-526) (domain or fragment; other documents disagree on this pair)” the Kd was 500 nM.
